From PMC7666189

Substrate: O=C(/C=C/c1ccc(O)c(O)c1)O[C@@H]1C[C@](O)(C(=O)O)C[C@@H](O)[C@H]1O
Assay: purified protein
Details: 5-CQA as sole substrate (acyl donor and acceptor), 0-30 mM, enzyme from N. benthamiana, optimum pH 6.3 and 39.9 °C, pH and temperature of the Km assay not given

B1: IbICS (Ipomoea batatas) (protein)
chain: CYSAVFGFGDSLTDAGNLIRLEPDGTVPHMYFPPYGETYFDKPTGRCSDGRLIVDLIAQHYGLPLPPPSIPASLEGDKNRLRAGVNFAVVGSRALDAQFYEQRDIFDTVTNVSMTDQLNWFKELLPSLCSSPHDCKELLDGSLFVLGEFGGNDYTHSLLSGKGINVIRPFIPIVTRAIAQAVHELVELGARTVMIPSVLPLGCAASYLTYYPSPNPDDYDELGCLIWVNEMASYHNQLLQQQLAHVRELHPYANIVFADIYNAAMEVYQGPDTYGFSGGALRACCGGGGPYNFNTSAQCGNEGATACDNPSSYVNWDGYHLTEAAYQCITTGLLEGPYTYPRMKNLCRFDSRKTSRVAQI
For B1, the Km was 3.5 mM.
